In patent publication US20030044400A1, “Composition and method for treating cells” (priority 2001, published 2003):

Assay: Determination of LD50 of Fetuin in Rats
Type: in vivo, Sprague-Dawley albino rats
Protocol: The Sprague-Dawley albino rats weighed 170-210 g and were divided into 4 groups, each group including 5 males and 5 females. The control group received 1 ml of saline intraperitoneally for 5 days. The other three groups were given 8.35 mg, 25 mg and 250 mg per kg body wt. of Fetuin 0.1 g/ml. All volumes were made up to 1 ml with sterile pyrogene free saline. The observation period was a least 14 days. If a visible toxic reaction occurs the observation period may be increased until visible signs of toxicity disappear. If any deaths occur during this period, the animal will be immediately autopsied to determine cause of death. During the observation period a careful clinical examination is made each day. These observations include skin and fur, eyes and mucous membranes, respiratory system, circulatory system, autonomic and central nervous system, somatomator activity and behavior patterns. Particular attention will be directed to observation of tremors, convulsions, salivation, diarrhea, lethargy, sleep or coma. Individual weights of the animals are determined shortly before the test substance is administered, and weekly thereafter. Any weight changes are recorded. At the end of the test, the surviving animals are weighed and sacrificed. Prior to sacrifice, blood is drawn from each animal to determine the serum levels of fetuin. After sacrifice, a gross necropsy is done on all animals. Any gross pathological changes are recorded and pertinent tissues preserved in 10% formalin for subsequent histopathology. The observations recorded are tabulated to see if there is any correlation between mortality and/or symptoms and the dose. The LD50 for each sex is determined at 14 days, using the method of Litchfield and Wilcoxon. A dose mortality curve and slope is determined if data justify it. A table of body weight gains or loses is constructed. Necropsy finding is reported.

[1] = rats, 5 female, 8.35 mg/kg Fetuin
[2] = rats, 5 female, 8.35 mg/kg Fetuin ip
[3] = rats, 5 female, 25 mg/kg Fetuin
[4] = rats, 5 female, 25 mg/kg Fetuin ip
[5] = rats, 5 female, 250 mg/kg Fetuin
[6] = rats, 5 female, 250 mg/kg Fetuin ip
[7] = rats, 5 male, 8.35 mg/kg Fetuin
[8] = rats, 5 male, 8.35 mg/kg Fetuin ip
[9] = rats, 5 male, 25 mg/kg Fetuin ip
[10] = rats, 5 male, 250 mg/kg Fetuin ip

## Fetuin: Fetal bovine fetuin purified from fetal bovine serum by modified Spiro method; 60 Kd glycoprotein, homologue of alpha 2-HS glycoprotein
All of the rats, 8.35, 25 and 250 mg per kg
  necropsy: appeared to be normal
[1]
  Spleen Wt. (gm): 0.513 gm
  Thymus Wt. (gm): 0.481 gm
[2]
  Final Wt. (gm): 203.5 gm
  Initial Wt. (gm): 170.2 gm
  Wt. Gain Total (gm): 33.3 gm
[3]
  Spleen Wt. (gm): 0.714 gm
  Thymus Wt. (gm): 0.485 gm
[4]
  Final Wt. (gm): 218.3 gm
  Initial Wt. (gm): 190.3 gm
  Wt. Gain Total (gm): 28.0 gm
[5]
  Spleen Wt. (gm): 0.578 gm
  Thymus Wt. (gm): 0.619 gm
[6]
  Final Wt. (gm): 201.7 gm
  Initial Wt. (gm): 164.2 gm
  Wt. Gain Total (gm): 37.5 gm
[7]
  Spleen Wt. (gm): 0.745 gm
  Thymus Wt. (gm): 0.599 gm
[8]
  Final Wt. (gm): 283.7 gm
  Initial Wt. (gm): 233.5 gm
  Wt. Gain Total (gm): 50.2 gm
rats, 5 male, 25 mg/kg Fetuin
  Spleen Wt. (gm): 0.796 gm
  Thymus Wt. (gm): 0.525 gm
[9]
  Final Wt. (gm): 227.5 gm
  Initial Wt. (gm): 174.5 gm
  Wt. Gain Total (gm): 53.0 gm
rats, 5 male, 250 mg/kg Fetuin
  Spleen Wt. (gm): 0.777 gm
  Thymus Wt. (gm): 0.595 gm
[10]
  Final Wt. (gm): 253.3 gm
  Initial Wt. (gm): 186.5 gm
  Wt. Gain Total (gm): 66.8 gm
rats, 8.35, 25 and 250 mg per kg ip, observation at least 14 days
  mortality: no mortality
